Data: the supplement of paper PMC9732359
± gives the uncertainty stated by the source.

Assay: protein stability index of a GFP-peptide fusion (yeast GPS) (PSI 1-4); higher = more stable; sorted into four equal gates, so the index is relative within each strain
Procedure, shortened: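 Yeast carrying a pooled library were grown to mid-log phase in leucine-free medium. Each library plasmid expresses Cherry and has a tiled 17-residue yeast protein peptide fused downstream of GFP. Cells were sorted into four equal gates by GFP/Cherry ratio, and plasmids from each gate were PCR-amplified, Illumina-sequenced and assigned to strains by barcode. Summing, across gates, the read frequency times the gate number gave each peptide's protein stability index.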

Sequence | protein stability index (doa10∆) | protein stability index (pdr5∆) | protein stability index (san1∆) | protein stability index (ubr1∆)
NDILVLMESEREARRLR [RPS28A] | 1.56 ± 0.12 | 2.94 ± 0.079 | 2.08 ± 0.16 | 2.7 ± 0.097
SKIRKIHIQETQEFSKN [SIR3] | 3.45 ± 0.11 | 3.08 ± 0.15 |  | 3.36 ± 0.084
SLGDGTNYYLTTARNDL [CSL4] | 2.66 ± 0.068 | 2.71 ± 0.068 | 2.83 ± 0.049 | 2.91 ± 0.1
TNSEDKLSKVQLYEDLC [MED4] | 3.04 ± 0.083 | 3.22 ± 0.091 | 3.09 ± 0.081 | 2.74 ± 0.059
QTQEFFLSSFDDVLQTI [YJL039C/NUP192] | 2.65 ± 0.046 | 2.27 ± 0.048 | 2.32 ± 0.047 | 2.51 ± 0.034
PVTSIPSTNKKLSISNA [GAL11] | 2.29 ± 0.061 | 2.67 ± 0.056 | 2.53 ± 0.058 | 2.8 ± 0.058
GKGRFQTPAEKHAFMGT [RPL3] | 3.13 ± 0.17 | 3.2 ± 0.061 | 2.97 ± 0.1 | 2.98 ± 0.093
PINLHPSKLVITKLHLD [RPL26A] | 1.74 ± 0.058 | 2.2 ± 0.045 | 1.9 ± 0.062 | 1.85 ± 0.042
YLEELERKKQSDVLRFL [RPL15B] | 1.34 ± 0.16 | 2.23 ± 0.22 | 1.44 ± 0.25 | 1.54 ± 0.1
VLKESIVNICDIQEEQV [PUP1] | 3.15 ± 0.22 | 3.04 ± 0.22 | 3.33 ± 0.14 | 
KDSLDNTFVTRLNNVFV [RPS4A] | 3.02 ± 0.11 | 3.02 ± 0.078 | 2.95 ± 0.085 | 2.95 ± 0.062
GYDPIVSTRAIDLLWKG [PRP28] | 2.12 ± 0.18 | 2.03 ± 0.091 | 1.47 ± 0.11 | 2.6 ± 0.079
DQDELVQPPLDKFPYKK [SWP82] | 3.11 ± 0.088 | 3.26 ± 0.093 | 3.13 ± 0.059 | 3.08 ± 0.066
LQDLEEAKSFQDEAELV [RPC82] | 3.5 ± 0.12 | 3.3 ± 0.15 | 3.52 ± 0.14 | 3.72 ± 0.17
VGSEKVLQDLRLGSKKL [YJL039C/NUP192] | 3.34 ± 0.13 |  | 3.38 ± 0.13 | 
RARVKAFPKDDRSKPVA [RPL3] | 2.85 ± 0.1 | 3.12 ± 0.1 | 3.4 ± 0.047 | 3.15 ± 0.083
RFNFISKYFIIDSFFLY [YMR129W/POM152] | 1.58 ± 0.061 | 1.24 ± 0.072 | 1.31 ± 0.12 | 1.12 ± 0.059
SLKNVTEKNREIYKQLN [YIL149C/MLP2] | 3.31 ± 0.097 | 2.76 ± 0.11 | 3.18 ± 0.056 | 2.99 ± 0.05
ALSMGKSSAFVIDIGAS [ARP7] | 1.47 ± 0.043 | 1.95 ± 0.069 | 1.62 ± 0.092 | 2.1 ± 0.059
INDNNTRPYILERARDV [YCG1] | 3.6 ± 0.23 |  |  | 
WQEYSSVFKGGMQNLIK [SRP14] | 3.1 ± 0.12 | 3.44 ± 0.13 | 2.92 ± 0.14 | 3.16 ± 0.17
VRDPWSIDFRTYRCSIK [SRB2] | 2.35 ± 0.11 | 2.41 ± 0.12 | 1.47 ± 0.13 | 2.31 ± 0.083
KIRMLTQAAEFLSPYIS [IRR1] | 1.84 ± 0.04 | 2.46 ± 0.047 | 1.74 ± 0.074 | 2.23 ± 0.045
TQQSHEQQPEQPQETEE [RPT4] | 2.9 ± 0.056 | 3.16 ± 0.058 | 2.99 ± 0.056 | 2.98 ± 0.047
GNPGLPQYQYQRRYVIK [ITC1] | 3.27 ± 0.2 | 3.04 ± 0.15 | 2.87 ± 0.079 | 3.34 ± 0.095
TNAPLRTLNIQPEVAVK [YIL149C/MLP2] | 2.08 ± 0.051 | 2.03 ± 0.048 | 1.65 ± 0.096 | 2.23 ± 0.042

Sequence | protein stability index (doa10∆) | protein stability index (pdr5∆) | protein stability index (san1∆) | protein stability index (ubr1∆)
GRGLWNPSYPGMMSTTG [YJL039C/NUP192] | 2.99 ± 0.092 | 3.12 ± 0.053 | 3.14 ± 0.074 | 3.1 ± 0.097
EKLTMVFQDNVYKIYNH [SIN4] | 2.08 ± 0.06 | 2.53 ± 0.053 | 1.6 ± 0.086 | 1.81 ± 0.037
LPEPTEGFAADDEPTTP [FAS1] | 3 ± 0.095 | 2.65 ± 0.099 | 3.35 ± 0.15 | 2.92 ± 0.065
ILEFITAAQVANVELTP [RPC34] | 2.68 ± 0.12 | 2.13 ± 0.08 | 2.27 ± 0.095 | 1.53 ± 0.095
NSKVNKLNIETMRKISS [DSN1] | 2.5 ± 0.17 | 2.43 ± 0.11 | 2.13 ± 0.12 | 2.95 ± 0.07
IANFSRAGKYELVKSYS [YJR042W/NUP85] | 2.25 ± 0.094 | 2.09 ± 0.074 | 1.28 ± 0.13 | 1.45 ± 0.06
VKEMEPKQSDEYLKRVS [SIR3] | 2.69 ± 0.056 | 2.74 ± 0.057 | 3.05 ± 0.05 | 2.54 ± 0.076
MGSLINGITLALIDAGI [SKI6] | 1.89 ± 0.1 | 2.1 ± 0.055 | 2.05 ± 0.075 | 2 ± 0.051
LALSGTSASNTSMNGVH [SNF5] | 2.48 ± 0.073 | 2.73 ± 0.16 |  | 3.05 ± 0.14
VNQDSTYKYFEVILVDP [RPL15A] | 3.21 ± 0.068 | 3.43 ± 0.082 | 3.12 ± 0.048 | 3.19 ± 0.057
WKAPSSIVLDSEHFDVN [DIS3] | 3.14 ± 0.062 | 3.47 ± 0.064 | 3.28 ± 0.056 | 3.33 ± 0.052
SKVQFDAKTSYPNEVLK [REC8] | 2.77 ± 0.05 | 3.08 ± 0.072 | 3.06 ± 0.059 | 3.04 ± 0.067
GARVFGALKGASDGGLY [RPL5] |  | 3.34 ± 0.17 |  | 3.11 ± 0.19
LYSIREDYELSPQAVSS [PRE1] | 2.2 ± 0.13 | 2.83 ± 0.097 | 2.63 ± 0.062 | 2.38 ± 0.069
AVGAHSDLLKVLKSKKL [RPL4A] | 3.13 ± 0.14 | 3.14 ± 0.13 | 2.61 ± 0.16 | 2.82 ± 0.062
HEDEKLIPTIFRYITTW [PRP8] | 2.6 ± 0.06 | 2.25 ± 0.048 | 1.9 ± 0.051 | 2.23 ± 0.033
AESFTDEADSSMTEASV [SNF2] | 3.36 ± 0.094 | 3.19 ± 0.092 | 3.39 ± 0.05 | 3.09 ± 0.089
SSEIKIYYNELQNKPDA [SIR4] | 2.91 ± 0.23 | 3.3 ± 0.14 | 2.46 ± 0.29 | 3.23 ± 0.087
FSMLQMAFEASAAAAGN [BRR2] |  | 2.26 ± 0.25 | 1.76 ± 0.21 | 
YFQQTTIDWVEAGLQLC [PRP8] | 3.53 ± 0.11 | 3.19 ± 0.099 | 3.2 ± 0.064 | 3.04 ± 0.1
SSKLQLTKKYSFKIFVD [RRP42] | 2.19 ± 0.09 | 1.76 ± 0.062 | 1.76 ± 0.086 | 2.06 ± 0.044
SLPLIVFLRNRLKYALN [RPS4A] | 1.4 ± 0.059 | 1.58 ± 0.092 | 1.48 ± 0.12 | 1.7 ± 0.043
IELDQVLNMLYWVPDWD [RPO21] | 2.84 ± 0.095 | 2.32 ± 0.068 | 2.17 ± 0.11 | 2.51 ± 0.057
LNRLPAASLGDMVMATV [RPL23A] | 1.6 ± 0.1 | 1.78 ± 0.072 | 2.52 ± 0.17 | 2.11 ± 0.057
KEKVSNGGVGVDVELIT [FAS2] | 2.96 ± 0.046 | 3.13 ± 0.062 | 3.11 ± 0.056 | 3.05 ± 0.05
HYKQQIAVLIELLEERF [YCS4] | 2.01 ± 0.07 | 2.12 ± 0.065 | 2.48 ± 0.1 | 2.34 ± 0.072
